Test results: US20200190192A1 (SUTRO BIOPHARMA, published 2020)
Like-named read-outs stand apart in the source and are kept apart here.

How the values were obtained:
[1] = biological target: T1, recombinant cynomolgus Tim-3-Fc (R&D Systems, 7914-TM) (cynomolgus monkey); test: ELISA, coated cyno Tim-3-Fc
T1 construct: Bought protein; also called cyTim-3-Fc; Cyno Tim-3-Fc; not shown: Fc of the bought fusion protein
T1 chain: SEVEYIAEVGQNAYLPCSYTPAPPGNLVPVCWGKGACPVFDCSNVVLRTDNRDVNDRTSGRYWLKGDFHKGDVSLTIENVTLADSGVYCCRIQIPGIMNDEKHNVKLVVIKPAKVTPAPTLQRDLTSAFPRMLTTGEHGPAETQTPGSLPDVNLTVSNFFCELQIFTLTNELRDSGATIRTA

[2] = biological target: T2, recombinant human Tim-3-Fc (R&D Systems, 2365-TM) (human, UniProt Q8TDQ0 22-202, biotinylated in the Galectin-9 competition ELISA (sites not given)); test: SPR Biacore, human Tim-3-Fc
T2 construct: Bought protein; also called huTim-3-Fc; biotinylated Tim-3-Fc; not shown: Fc of the bought fusion protein

[3] = biological target: T3, human Tim-3 expressed on the cell surface (human, UniProt Q8TDQ0 22-301); test: cell binding (flow cytometry; cells not given)
T3 construct: also called hTim-3; Human Tim-3 (CHO)

[4] = biological target: T2, recombinant human Tim-3-Fc (R&D …); test: ELISA, coated human Tim-3-Fc
[5] = biological target: T2, recombinant human Tim-3-Fc (R&D …); test: competition ELISA, biotin-Tim-3-Fc vs coated Galectin-9
[6] = biological target: T4, human Tim-3 (Biacore analyte; TIM-3-Fc or TIM-3-HIS, not said which) (human, UniProt Q8TDQ0 22-202); test: SPR, Tim-3 analyte
T4 construct: also called TIM-3 antigen; not shown: Fc or HIS tag

[7] = biological target: T3, human Tim-3 expressed on the cell …; test: flow cytometry, CHO-human Tim-3 cells; parameters: Bmax: unit not given here
[8] = biological target: T5, human PD-1 expressed on CHO cells (human, UniProt Q15116 25-288); test: flow cytometry, CHO-human PD-1 cells; parameters: Bmax: unit not given here
T5 construct: also called hPD-1; CHO-hPD-1

[9] = biological target: T6, biotinylated recombinant human PD-1 (AcroBiosystems) (human, UniProt Q15116 25-167, limits assumed, biotinylated (sites not given)); test: competition, flow cytometry: biotin-PD-1 binding to CHO-human PD-L1 cells
T6 construct: Bought protein; also called biotinylated PD-1

[10] = biological target: T2, recombinant human Tim-3-Fc (R&D …); test: SPR Biacore, human Tim-3 Fc;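 further: antibodies captured on an anti-FLAG sensor surface, Tim-3-Fc flowed over as analyte at 25 °C in HBS-EP+ buffer, rates fit with a 1:1 Langmuir model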
[11] = biological target: T2, recombinant human Tim-3-Fc (R&D …); test: SPR Biacore, human Tim-3 Fc; KD estimated;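 on koff: antibodies captured on an anti-FLAG sensor surface, Tim-3-Fc flowed over as analyte at 25 °C in HBS-EP+ buffer, rates fit with a 1:1 Langmuir model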
[12] = biological target: T7, cynomolgus Tim-3 expressed on CHO cells (cynomolgus monkey); test: flow cytometry, CHO-cyno Tim-3 cells
T7 construct: also called cTim-3; Cyno Tim-3 (CHO)
T7 chain: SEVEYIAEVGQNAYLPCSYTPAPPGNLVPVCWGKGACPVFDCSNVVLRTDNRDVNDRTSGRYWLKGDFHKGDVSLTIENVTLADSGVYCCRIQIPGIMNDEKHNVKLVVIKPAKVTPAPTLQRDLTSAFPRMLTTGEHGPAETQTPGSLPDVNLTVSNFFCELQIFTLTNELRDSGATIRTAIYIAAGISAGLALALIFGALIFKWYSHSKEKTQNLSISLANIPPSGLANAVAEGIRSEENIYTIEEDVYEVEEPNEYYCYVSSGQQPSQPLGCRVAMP

[13] = biological target: T3, human Tim-3 expressed on the cell …; test: flow cytometry, activated human CD4+ T cells
[14] = biological target: T3, human Tim-3 expressed on the cell …; test: flow cytometry, CHO-human Tim-3 cells
[15] = biological target: T2, recombinant human Tim-3-Fc (R&D …); test: competition ELISA, biotin-Tim-3-Fc vs coated Galectin-9; remark: listed apart in the source
[16] = biological target: PD-1 (SPR analyte of the PD-1 kinetics) (Homo sapiens (Human), UniProt Q15116 25-167, limits assumed); test: SPR, PD-1 kinetics
[17] = biological target: T5, human PD-1 expressed on CHO cells; test: hPD-1 binding titration (format not named; taken as cell binding)

B1: SRP1497-A01 (antibody, V domains shown)
VH: EVQLVESGGGLVQPGGSLRLSCAASGFNISNYAIHWVRQAPGKGLEWVADITPDGGYTDYADSVKGRFTISADTSKNTAYLQMNSLRAEDTAVYYCARGYVYRMWDSFDYWGQGTLVTVSS
VL: not shown
notes: IgG with trastuzumab LC, cell-free expressed; constructs were HIS- and FLAG-tagged
EC50 [1]: 22.6 nM
Kd [2]: 2.15 nM
koff [2]: 0.000425 s⁻¹
kon [2]: 197000 M⁻¹ s⁻¹
Kd [3]: 1.17 nM
EC50 [4]: 0.3 nM
IC50 [5]: 0.8 nM

B2: 1353-G10 scFvFc-zwB × 1649-A01 Fab-zwA (parent) (bispecific antibody)
scFv: not shown
VH: EVQLVESGGGLVQPGGSLRLSCAASGFNISRYYIHWVRQAPGKGLEWVAGITPVRGYTEYADSVKDRFTISADTSKNTAYLQMNSLRAEDTAVYYCARGYVYRMWDSYDYWGQGTLVTVSS
VL: not shown
notes: Tim-3 heavy chain carries zwA (T350V/L351Y/F405A/Y407V) in CH3
Kd [6]: 12 nM
Bmax [7]: 14700
Kd [7]: 3.9 nM
Bmax [8]: 13300
Kd [8]: 1.4 nM
IC50 [9]: 191 nM

B3: 1353-G10 scFvFc-zwB × 1649-A01 Hc zwA S30D/TrstmbLC S56D (bispecific antibody)
scFv: not shown
VH: EVQLVESGGGLVQPGGSLRLSCAASGFNIDRYYIHWVRQAPGKGLEWVAGITPVRGYTEYADSVKDRFTISADTSKNTAYLQMNSLRAEDTAVYYCARGYVYRMWDSYDYWGQGTLVTVSS
VL: not shown
notes: Tim-3 heavy chain with zwA CH3 mutations
Kd [6]: 7.1 nM
Bmax [7]: 11700
Kd [7]: 3.2 nM
Bmax [8]: 12500
Kd [8]: 1.3 nM
IC50 [9]: 128 nM

B4: SRP1497-A02 (antibody, V domains shown)
VH: EVQLVESGGGLVRPGGSLRLSCAASGFNISNYAIHWVRQAPGKGLEWVADITPDGGYTDYADSVKGRFTISADTSKNTAYLQMNSLRAEDTAVYYCARGYVYRMWDSFDYWGQGTLVTVSS
VL: not shown
notes: IgG with trastuzumab LC; HIS- and FLAG-tagged
EC50 [1]: 13.7 nM
Kd [2]: 2.95 nM
koff [2]: 0.000544 s⁻¹
kon [2]: 185000 M⁻¹ s⁻¹
Kd [3]: 1.54 nM
EC50 [4]: 0.34 nM
IC50 [5]: 1 nM

B5: 1353-G10 scFvFc-zwB × 1649-A01 Hc zwA S30D/R31D/TrstmbLC S56D (bispecific antibody)
scFv: not shown
VH: EVQLVESGGGLVQPGGSLRLSCAASGFNIDDYYIHWVRQAPGKGLEWVAGITPVRGYTEYADSVKDRFTISADTSKNTAYLQMNSLRAEDTAVYYCARGYVYRMWDSYDYWGQGTLVTVSS
VL: not shown
notes: as for B3
Kd [6]: 8.7 nM
Bmax [7]: 10500
Kd [7]: 3.7 nM
Bmax [8]: 9860
Kd [8]: 1.1 nM
IC50 [9]: 138 nM

B6: 1353-G10 scFvFc-zwB × 1649-A01 Hc zwA R31D/TrstmbLC S56D (bispecific antibody)
scFv: not shown
VH: EVQLVESGGGLVQPGGSLRLSCAASGFNISDYYIHWVRQAPGKGLEWVAGITPVRGYTEYADSVKDRFTISADTSKNTAYLQMNSLRAEDTAVYYCARGYVYRMWDSYDYWGQGTLVTVSS
VL: not shown
notes: as for B3
Kd [6]: 8.6 nM
Bmax [7]: 11300
Kd [7]: 3.5 nM
Bmax [8]: 14000
Kd [8]: 2.7 nM
IC50 [9]: 117 nM

B7: 1353-G10 scFvFc-zwB × 1649-A01 Hc zwA S30D/R31D/Y56D/TrstmbLC S56D (bispecific antibody)
scFv: not shown
VH: EVQLVESGGGLVQPGGSLRLSCAASGFNIDDYYIHWVRQAPGKGLEWVAGITPVRGDTEYADSVKDRFTISADTSKNTAYLQMNSLRAEDTAVYYCARGYVYRMWDSYDYWGQGTLVTVSS
VL: not shown
notes: as for B3
Kd [6]: 11 nM
Bmax [7]: 10900
Kd [7]: 4.3 nM
Bmax [8]: 13000
Kd [8]: 2.1 nM
IC50 [9]: 147 nM

B8: 1353-G10 scFvFc-zwB × 1649-A01 Hc zwA S30D/Y56D/TrstmbLC S56D (bispecific antibody)
scFv: not shown
VH: EVQLVESGGGLVQPGGSLRLSCAASGFNIDRYYIHWVRQAPGKGLEWVAGITPVRGDTEYADSVKDRFTISADTSKNTAYLQMNSLRAEDTAVYYCARGYVYRMWDSYDYWGQGTLVTVSS
VL: not shown
notes: Tim-3 heavy chain with zwA CH3 mutations; also called 1649-A01 Hc zwA S30D/Y56D/TrsimbLC S56D
Kd [6]: 9.7 nM
Bmax [7]: 10000
Kd [7]: 3.6 nM
Bmax [8]: 9650
Kd [8]: 1.2 nM
IC50 [9]: 108 nM

B9: 1353-G10 scFvFc-zwB × 1649-A01 Hc zwA R31D/Y56D/TrstmbLC S56D (bispecific antibody)
scFv: not shown
VH: EVQLVESGGGLVQPGGSLRLSCAASGFNISDYYIHWVRQAPGKGLEWVAGITPVRGDTEYADSVKDRFTISADTSKNTAYLQMNSLRAEDTAVYYCARGYVYRMWDSYDYWGQGTLVTVSS
VL: not shown
Kd [6]: 8.8 nM
Bmax [7]: 11400
Kd [7]: 3.3 nM
Bmax [8]: 12600
Kd [8]: 1.6 nM
IC50 [9]: 148 nM

B10: h22E11-VK4-1 × h22E11-VH3-23 (antibody, V domains shown)
VH: EVQLLESGGGLVQPGGSLRLSCAVSGFSLTSYGVHWVRQAPGKGLEWLVVIWSDGSTTYNDSVKGRFTISKDNSKNTVYLQMNSLRAEDTAVYYCARQGGYRYDDAMDYWGQGTLVTVSS
VL: DIVLTQSPDSLAVSLGERATINCKASQSVDYDGNSYVNWYQQKPGQPPKLLIYAASNLESGVPDRFSGSGSGTDFTLTISSLQAEDVAVYYCQQSNEDPYTFGQGTKVEIK
notes: Humanized m22E11
koff [10]: 0.000875 s⁻¹
Kd [11]: 5 nM
Kd [12]: 4.6 nM
Kd [13]: 0.9 nM
Kd [14]: 0.9 nM
IC50 [15]: 0.67 nM

B11: h22E11-VK3-11 × h22E11-5-IgG-HC (antibody, V domains shown)
VH: EVQLVESGGGLVQPGGSLRLSCAVSGFSLTSYGVHWVRQAPGKGLEWLVVIWSDGSTTYNSALKSRFTISKDNAKNSVYLQMNSLRAEDTAVYYCARQGGYRYDDAMDYWGQGTLVTVSS
VL: EIVLTQSPATLSLSPGERATLSCKASQSVDYDGNSYVNWYQQKPGQAPRLLIYAASNLESGIPARFSGSGSGTDFTLTISSLEPEDFAVYYCQQSNEDPYTFGQGTKVEIK
notes: Humanized m22E11
koff [10]: 0.00104 s⁻¹
Kd [11]: 5.9 nM
Kd [12]: 5.3 nM
Kd [13]: 1.1 nM
Kd [14]: 0.8 nM
IC50 [15]: 0.64 nM

B12: h22E11-5-IgG-LC × h22E11-5-IgG-HC (antibody, V domains shown)
VH: EVQLVESGGGLVQPGGSLRLSCAVSGFSLTSYGVHWVRQAPGKGLEWLVVIWSDGSTTYNSALKSRFTISKDNAKNSVYLQMNSLRAEDTAVYYCARQGGYRYDDAMDYWGQGTLVTVSS
VL: EIVLTQSPGTLSLSPGERATLSCKASQSVDYDGNSYVAWYQQKPGQAPRLLIYAASNLESGIPDRFSGSGSGTDFTLTISRLEPEDFAVYYCQQSNEDPYTFGQGTKVEIK
notes: Humanized m22E11; also called h22E11-5 IgG (lot 2)
koff [10]: 0.0011 s⁻¹
Kd [11]: 6.8 nM
Kd [14]: 1 nM
IC50 [15]: 0.77 nM

B13: 1353-G10 H1 HC IgG (antibody, V domains shown)
VH: EVQLVQSGAEVKKPGASVKVSCKASGYTFDSYGISWVRQAPGQGLEWMGWISAYNGNTNYAQKLQGRVTMTTDTSTNTAYMELRSLRSDDTAVYYCARDVDYGTGSGYWGQGTLVTVSS
VL: SYELTQPPSVSVSPGQTARITCSGDALPKQYAYWYQQKPGQAPVMVIYKDTERPSGIPERFSGSSSGTKVTLTISGVQAEDEADYYCQSADNSITYRVFGGGTKVTVL
notes: IgG; also called Sample J
Kd [16]: 2.3 nM
koff [16]: 0.0026 s⁻¹
kon [16]: 1.1e+06 M⁻¹ s⁻¹
Bmax [17]: 3410
Kd [17]: 0.5 nM

B14: 1353-G10 vk1-39 LC IgG (antibody, V domains shown)
VH: EVQLVQSGAEVKKPGASVKVSCKASGYRFPHYGISWVRQAPGQGLEWMGWISAYNGNTNYAQKLQGRVTMTTDTSTNTAYMELRSLRSDDTAVYYCARDVDYGTGSGYWGQGTLVTVSS
VL: DIQLTQSPSSLSASVGDRVTITCSGDALPKQYAYWYQQKPGKAPKLLIYKDTERPSGVPSRFSGSSSGTKVTLTISSLQPEDFATYYCQSADNSITYRVFGGGTKVEIK
notes: IgG; also called Sample K
Kd [16]: 0.85 nM
koff [16]: 0.00049 s⁻¹
kon [16]: 580000 M⁻¹ s⁻¹
Bmax [17]: 3630
Kd [17]: 0.8 nM
